Values joined by “and” are separate entries in the source; they are usually repeats but may differ in a detail not shown here. Identical values can stand only once. Like-named read-outs stand apart in the source and are kept apart here.
B1: Tom7 (natural protein, S. cerevisiae, UniProt P53507 1-60, looked up)
chain: MSFLPSFILSDESKERISKILTLTHNVAHYGWIPFVLYLGWAHTSNRPNFLNLLSPLPSV
B2: Tom6 (natural protein, S. cerevisiae, UniProt P33448 1-61, looked up)
chain: MDGMFAMPGAAAGAASPQQPKSRFQAFKESPLYTIALNGAFFVAGVAFIQSPLMDMLAPQL
B3: Tom5 (natural protein, S. cerevisiae, UniProt P80967 1-50, looked up)
chain: MFGLPQQEVSEEEKRAHQEQTEKTLKQAAYVAAFLWVSPMIWHLVKKQWK
B4: Tom22 (natural protein, S. cerevisiae, UniProt P49334 1-152, looked up)
chain: MVELTEIKDDVVQLDEPQFSRNQAIVEEKASATNNDVVDDEDDSDSDFEDEFDENETLLDRIVALKDIVPPGKRQTISNFFGFTSSFVRNAFTKSGNLAWTLTTTALLLGVPLSLSILAEQQLIEMEKTFDLQSDANNILAQGEKDAAATAN
B5: Tom40 (natural protein, S. cerevisiae, UniProt P23644 1-387, looked up)
chain: MSAPTPLAEASQIPTIPALSPLTAKQSKGNFFSSNPISSFVVDTYKQLHSHRQSLELVNPGTVENLNKEVSRDVFLSQYFFTGLRADLNKAFSMNPAFQTSHTFSIGSQALPKYAFSALFANDNLFAQGNIDNDLSVSGRLNYGWDKKNISKVNLQISDGQPTMCQLEQDYQASDFSVNVKTLNPSFSEKGEFTGVAVASFLQSVTPQLALGLETLYSRTDGSAPGDAGVSYLTRYVSKKQDWIFSGQLQANGALIASLWRKVAQNVEAGIETTLQAGMVPITDPLMGTPIGIQPTVEGSTTIGAKYEYRQSVYRGTLDSNGKVACFLERKVLPTLSVLFCGEIDHFKNDTKIGCGLQFETAGNQELLMLQQGLDADGNPLQALPQL
B6: core TOM complex (monomeric unit: Tom40, Tom22, Tom5, Tom6, Tom7) (complex, S. cerevisiae)
chain 1: B5 chain
chain 2: B4 chain
chain 3: B3 chain
chain 4: B2 chain
chain 5: B1 chain

How the values were obtained:
Tom40 [1] = biological target: B5; experiment: cryo-EM structure
cryo-EM structure [2] = biological target: the molecule itself; experiment: cryo-EM structure
Tom22 = biological target: B4; experiment: cryo-EM structure
Tom40 [3] = biological target: B5; experiment: cryo-EM structure; remark: listed apart in the source
cryo-EM structure [4] = biological target: the molecule itself; experiment: cryo-EM structure; remark: listed apart in the source
SEC = biological target: the molecule itself; experiment: SEC

Binder: B1
binding result (Tom40 [1]): binds

Binder: B2
binding result (cryo-EM structure [2]): binds
binding result (Tom40 [1]): binds

Binder: B3
binding result (Tom22): binds
binding result (Tom40 [1]): binds

Binder: B4
binding result (Tom40 [3]): binds

Binder: B5
binding result (cryo-EM structure [4]): binds

Binder: B6
stoichiometry N (cryo-EM structure [2]): 4 and 3
stoichiometry N (SEC): 2

— article doi:10.1101/798371 (bioRxiv, 2019)
